Columns and labels:
MntR (Bacillus subtilis) = molecular target: T1, MntR (Bacillus subtilis) (UniProt P54512); assay: EMSA; details: 10 mM Tris-HCl pH 7.5, 43 mM NaCl, 1 mM MnCl2, 1 mM DTT, 5% glycerol, 1 ug poly[dI-dC] per 14 ul, 23 C 15 min; 5% PAGE in 40 mM Tris-acetate at 4 C
T1 sequence: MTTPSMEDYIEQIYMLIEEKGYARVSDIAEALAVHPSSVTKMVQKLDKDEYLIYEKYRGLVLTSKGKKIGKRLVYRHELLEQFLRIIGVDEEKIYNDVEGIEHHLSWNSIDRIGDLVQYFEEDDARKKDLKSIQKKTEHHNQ

AhrC (Bacillus subtilis) = molecular target: T2, AhrC (Bacillus subtilis) (UniProt P17893); assay: EMSA; details: 10 mM Tris-HCl pH 7.5, 43 mM NaCl, 1 mM MnCl2, 1 mM DTT, 5% glycerol, 1 ug poly[dI-dC] per 14 ul, 23 C 15 min; 5% PAGE in 40 mM Tris-acetate at 4 C
T2 sequence: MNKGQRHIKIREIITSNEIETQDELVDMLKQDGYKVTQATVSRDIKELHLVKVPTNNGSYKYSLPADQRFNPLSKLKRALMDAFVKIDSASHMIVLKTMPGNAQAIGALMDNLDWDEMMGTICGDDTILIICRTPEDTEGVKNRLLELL

Sequence	binding (MntR (Bacillus subtilis))	binding (AhrC (Bacillus subtilis))
ATGAAGCTTCAAAGAGTTTCCTTAAGGCAAATTATTTTATCTACATCATATGACCATCCCGGTTTCTTGTCAACCGAAAATGTTCAAAATACACTTCTGAATTTTTCCCTGTTATGTAACATGATATGTAGGGATTCGTGATAAGGTCCCATATAAAAAGACATCGTTTCATTTCGAAACGATGCCTCCTGTATCTAATGAGTCTAGGCTTCCTTCCGCAGCCCGCGGAATATAAGGCCCAGCAAGAACACGAAGATGGCTGCCCCGATGATGGCCGGGA (double strand) [PmntH del1]	binds	–
ATGAAGCTTTTATCTACATCATATGACCATCCCGGTTTCTTGTCAACCGAAAATGTTCAAAATACACTTCTGAATTTTTCCCTGTTATGTAACATGATATGTAGGGATTCGTGATAAGGTCCCATATAAAAAGACATCGTTTCATTTCGAAACGATGCCTCCTGTATCTAATGAGTCTAGGCTTCCTTCCGCAGCCCGCGGAATATAAGGCCCAGCAAGAACACGAAGATGGCTGCCCCGATGATGGCCGGGA (double strand) [PmntH del2]	no binding	–
CCGAAGCTTTCTCCTAAATCACAGTTTAAATCAATCTGAAACACAGAATCCCTCCTGCCAAAGCAAACGATATGCTTTATGTCATTTATTGTCCCGAAATTCGGAACGACTATTCCGAATTTTTGAACTTTATTTCATTATAAGTGAATCATATCAGTTTGTGAAATACTTTTGTCAGAAAACCTACCATGGTCCCAGAATAAAACCTGCCAAACTAAAAAAGAGAGTCCATCTTAGGACTCTGAATTCGAT (double strand) [PpxpA probe 2]	–	binds
CCGAAGCTTTCTCCTAAATCACAGTTTAAATCAATCTGAAACACAGAATCCCTCCTGCCAAAGCAAACGATATGCTTTATGTCATTTATTGTCCCGAAATTCGGAACGACTATTCCGAATTTTTGAACTTTATTTCATTATAAGTGAATCATATCAGTTTGTGAAATACTTTTGTCAGAAAACCTACCATGGTCCCAGAATAAAACCTGCCAAACTAAAGAATTCGAT (double strand) [PpxpA probe 3]	–	binds more weakly
GCGCTTTCAGCGAATGTGTGGAAAAAATGTTTCGTTTTTTATTCGCTGTGTGATTTTGCGTAATATTTACAATTCGATAGAATGCGAGAAGCACTGGTGTCCTTGGGTTTGATGGGATTTTTGGCGGAGCAAATAAATTGGATGAGAGAAAAAGTGTTCCTTCGTCACTATTTTTCTGTGGCGGGTGAATCATGTTTCTGTAGACCCACTGCGGATCAGCTTTGTAAGATAATAATAGGAAAATGTGAGCGAGAGGAGGTTTTGTATGGAGAGATATGATGAACTG (double strand) [PmneS]	–	binds
TTTAGTTTGGCAGGTTTTATTCTGGGACCATGGTAGGTTTTCTGACAAAAGTATTTCACAAACTGATATGATTCACTTATAATGAAATAAAGTTCAAAAATTCGGAAGCTTCCG (double strand) [PpxpA probe 5]	–	binds more weakly

From PMC10448178
